Usually stoichiometry N stands for the number of molecules, sites or subunits per partner or assembly.

In test [1] the target is Rotavirus strain SA11 nonstructural protein 2 with the K294E change, untagged (NSP2 K294E) (rotavirus strain SA11). As to the kind of experiment: crystal structure; sitting drop vapor diffusion, 20 °C; protein ~8 mg/mL in 10 mM Tris-HCl pH 7.2, 50 mM NaCl, 1 mM DTT; reservoir 100 mM Tris-HCl pH 7.5, 0.2 M magnesium acetate, 12% PEG6K; space group I422, 1 molecule per asymmetric unit, octamer with D4 symmetry.

For test [2], the target named is Rotavirus strain SA11 nonstructural protein 2, wildtype, untagged (NSP2WT) (rotavirus strain SA11). The test is described as above.

Take “Rotavirus strain SA11 nonstructural protein 2 with the K294E change, untagged (NSP2 K294E) (natural protein)”: the stoichiometry N in test [1] was found to be 8.

For the substance “Rotavirus strain SA11 nonstructural protein 2, wildtype, untagged (NSP2WT) (natural protein)”, the stoichiometry N in test [2] stood at 8.

(Values after article PMC12623717.)
